{
  "source": "patent US20030152946A1",
  "about": "“Bh4-fused polypeptides” (priority 1999, published 2003)",
  "key": {"[1]": {"target": "T1, Rat liver VDAC (Rattus norvegicus, UniProt Q9Z2L0)", "T1 construct": "Rat liver VDAC was purified in accordance with a report made by Shimizu et al; from tissue; host or cells: rat liver (mitochondria)", "T1 sequence (Q9Z2L0 whole entry)": "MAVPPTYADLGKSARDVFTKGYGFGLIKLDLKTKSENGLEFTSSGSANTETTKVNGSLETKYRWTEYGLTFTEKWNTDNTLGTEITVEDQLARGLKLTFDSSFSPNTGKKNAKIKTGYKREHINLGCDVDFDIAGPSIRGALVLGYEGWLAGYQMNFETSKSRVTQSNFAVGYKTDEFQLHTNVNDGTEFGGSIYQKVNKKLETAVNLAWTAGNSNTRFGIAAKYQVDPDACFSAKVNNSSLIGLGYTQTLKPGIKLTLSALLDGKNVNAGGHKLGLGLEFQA", "experiment": "VDAC activity: sucrose uptake into VDAC liposomes (liposomal swelling, light scatter at 520 nm)", "assay_type": "biochemical", "conditions": "for Inhibition of VDAC activity (VDAC-mediated sucrose uptake): 20 μg/ml protein or polypeptide", "experimental": "Purified VDAC was reconstituted in small unilamellar vesicles by the ultrasonic freeze-thaw procedure described in a report made by Shimizu et al. [Nature, 399, 483-487 (1999)]. Sucrose uptake experiment was performed by assessing liposomal swelling.\nLiposomes produced at pH 5.2 were incubated at 25° C. in 1 ml of liposome buffer together with rBcl-xL, rΔ21, rBax or a polypeptide for 3 minutes. Here, acidic pH was a required condition for efficient uptake of rBcl-xL and rBax into the liposomes. Thereafter, sucrose was added up to a concentration of 50 mM to the mixture, and the liposomal swelling was assessed by the decrease in light scatter at a wavelength of 520 nm using a spectrophotometer (F-4500, manufactured by Hitachi, Ltd.). Sucrose uptake was also estimated from ^14C-sucrose uptake as described in the report made by Shimizu et al. [Nature, 399, 483-487(1999)].\nNext, the functional role of the BH4 domain in the regulation of VDAC activity was examined. VDAC activity was measured by assessing sucrose uptake into VDAC-containing liposomes, using the two procedures: a method with radiolabeled sucrose described in a report made by Shimizu et al. [Nature, 399, 483-487 (1999)], and a method for measuring a sucrose uptake-dependent liposomal swelling that was monitored by decrease in light scatter. Since sucrose-uptake-dependent liposomal swelling was confirmed by microscopic observation or flow cytometric analysis, it is thought that the liposomal swelling is based on the rapid influx of sucrose and water through large VDAC pores which overwhelmed osmosis-dependent efflux of water."}, "[2]": {"target": "T2, VDAC (Rattus norvegicus, UniProt Q9Z2L0)", "T2 construct": "from tissue; host or cells: rat liver (purified VDAC, or isolated mitochondria)", "T2 sequence (Q9Z2L0 whole entry)": "as above", "experiment": "Co-immunoprecipitation with VDAC and Western blot", "assay_type": "binding", "conditions": "20 μg/ml protein or polypeptide", "experimental": "Purified VDAC (20 μg/ml) was incubated with recombinant BCl-xL (rBcl-xL) and recombinant Δ21 (rΔ21), and the resulting mixture was immunoprecipitated with anti-Bcl-xL (L19) antibody and normal rabbit IgG. In order to detect interactions between polypeptide and VDAC, isolated mitochondria (1 mg) were incubated with 20 μg of Bcl-xL N-terminal polypeptide or Bcl-xL C-terminal polypeptide for 5 minutes. Thereafter, the resulting mitochondria were pelleted, washed, and suspended in a lysis buffer (10 mM HEPES, pH 7.4, 142.5 mM KCl, 5 mM MgCl2, 1 mM EGTA and 0.5% NP40) in the presence of proteinase inhibitors (0.1 mM p-APMSF, 10 μg/ml aprotinin, 1 μg/ml chymostatin, 1 μg/ml leupeptin, 1 μg/ml antipain, 1 μg/ml pepstatin), followed by ultrasonic disruption. Immunoprecipitation was carried out with anti-Bcl-x polyclonal antibodies corresponding to the polypeptides used. Co-immunoprecipitation of VDAC was detected by Western blotting using an anti-VDAC antibody."}, "[3]": {"test_system": "Rat liver mitochondria", "experiment": "Ca2+-induced ΔΨ loss in isolated mitochondria (Rhodamine 123 uptake)", "assay_type": "biochemical", "conditions": "for Inhibition of Ca2+-induced mitochondrial ΔΨ loss: mitochondria 1 mg/ml, 40 μM Ca2+, 20 μg/ml protein or polypeptide", "experimental": "(§1) Rat liver mitochondria (1 mg protein/ml) isolated in accordance with a report made by Shimizu et al. [Oncogene, 13, 21-29(1996)] were incubated at 25° C. in a medium containing 0.3 M mannitol, 10 mM HEPES/K^+ (pH 7.4), 0.1% fatty acid-free BSA, 1 mM potassium phosphate, 40 μM CaCl2 and 4.2 mM succinate for energization in the presence or absence of recombinant proteins.\nΔΨ was assessed by measuring the uptake of Rhodamine 123 (Rh123) as previously described by Shimizu et al. [Oncogene, 13, 21-29(1996)].\nIsolated mitochondria (1 mg/ml) were incubated with 20 μg/ml Bcl-xL BH4 polypeptide in the presence of 40 μM Ca^2+, and thereafter Rhodamine 123 intensity was continuously monitored. The results are shown in the left panel of FIG. 14. In addition, isolated mitochondria (1 mg/ml) were incubated with 20 μg/ml BH4 polypeptide of Bcl-xL and any of various mutant polypeptides in the presence of 40 μM Ca for 15 minutes, and thereafter ΔΨ was measured by Rhodamine 123 intensity. The results are shown in the right panel of FIG. 14."}, "[4]": {"target": "T3, Bax (Homo sapiens, UniProt Q07812)", "T3 construct": "made in house", "T3 sequence (Q07812 whole entry)": "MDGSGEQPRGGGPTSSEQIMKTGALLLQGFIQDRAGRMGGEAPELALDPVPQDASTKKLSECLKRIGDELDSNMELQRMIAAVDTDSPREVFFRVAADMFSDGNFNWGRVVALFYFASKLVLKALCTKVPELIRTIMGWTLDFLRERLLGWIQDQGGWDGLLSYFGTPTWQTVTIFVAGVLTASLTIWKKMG", "experiment": "Binding of BH4 polypeptide to Bax"}, "[5]": {"test_system": "HeLa cells", "experiment": "VP16-induced apoptosis in HeLa cells in the presence of TAT-BH4 polypeptide", "assay_type": "cell-based, human", "conditions": "VP16 for 24 hours, polypeptide in the culture medium", "experimental": "FIG. 17 is a diagram showing the results for evaluating the effect of TAT-BH4 polypeptide on VP16-induced apoptosis. Cells were treated with VP16 at the indicated concentrations for 24 hours in the presence of 100 μg/ml TAT-BH4 polypeptide (□) or TAT polypeptide (∘) or absence of polypeptide (●) and then stained with Hoechst 33342. Apoptotic cell death was determined by the morphology of nuclei using a fluorescence microscope. Data shown are from one of three independent experiments.\nFIG. 18 is a diagram showing the results for evaluating the dose-dependent inhibition of VP16-induced apoptosis by TAT-BH4 polypeptide. […] Apoptotic cell death was determined in the same manner as in FIG. 17.\nThe inhibition and promotion of apoptosis can be evaluated by, for instance, the following method, without being limited thereto.\nTherefore, in order to facilitate the transport of the BH4 polypeptide into cells, the above-mentioned TAT-BH4 polypeptide of 30 amino acid residues was synthesized, the polypeptide comprising N-terminal eosin-conjugated cystein and the PTD of HIV TAT protein fused to the Bcl-xL BH4 polypeptide. HeLa cells were treated with 200 μM VP16 in the presence of the TAT-BH4 polypeptide, and then observed by an optical phase-contrast microscope and a fluorescence microscope, respectively. […]"}, "[6]": {"test_system": "Rat liver mitochondria", "experiment": "Ca2+-induced cytochrome c release from isolated mitochondria (Western blot)", "assay_type": "biochemical", "conditions": "mitochondria 1 mg/ml, 40 μM Ca2+, 20 μg/ml protein", "experimental": "as §1\nThe cytochrome c release was evaluated by centrifuging the above-mentioned mitochondria, re-suspending the resulting pellets in an RIPA buffer to give mitochondria suspension, and subjecting the mitochondria suspension and supernatant to Western blot analysis using anti-cytochrome c antibodies."}, "[7]": {"target": "rat liver VDAC (voltage-dependent anion channel) (rat, UniProt Q9Z2L0 2-283)", "sequence (Q9Z2L0 2-283)": "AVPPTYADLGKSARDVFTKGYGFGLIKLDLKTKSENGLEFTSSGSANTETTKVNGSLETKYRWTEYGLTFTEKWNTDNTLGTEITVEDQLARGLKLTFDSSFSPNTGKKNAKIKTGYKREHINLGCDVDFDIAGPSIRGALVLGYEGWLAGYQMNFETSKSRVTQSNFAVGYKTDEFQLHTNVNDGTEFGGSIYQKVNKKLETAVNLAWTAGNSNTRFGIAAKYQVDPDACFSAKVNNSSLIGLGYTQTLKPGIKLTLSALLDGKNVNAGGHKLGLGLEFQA", "experiment": "cell-based or functional assay"}},
  "data": [
    {"molecule": "FL1213GG: F12L13 mutant of human Bcl-xL BH4 polypeptide (FIG. 13) (SNRELVVDGGSYKLSQKGYS) [reference compound]", "values": [
      {"measurement": "Inhibition of VDAC activity (VDAC-mediated sucrose uptake)", "setting": "[1]; VDAC liposomes, 50 mM sucrose", "value": "did not inhibit"}
    ]},
    {"molecule": "L17W: Bcl-xL BH4 polypeptide with one amino acid substitution at L17 (SNRELVVDFLSYKWSQKGYS) [Polypeptide L17W, reference compound]", "values": [
      {"measurement": "VDAC inhibitory activity as compared to VDAC inhibition of the normal BH4 polypeptide (fraction in words)", "setting": "[1]; 20 μg/ml polypeptide, 50 mM sucrose", "value": "about one-half"}
    ]},
    {"molecule": "LV89GG: L8V9 mutant of human Bcl-xL BH4 polypeptide (FIG. 13) (SNREGGVDFLSYKLSQKGYS) [reference compound]", "values": [
      {"measurement": "Inhibition of VDAC activity (VDAC-mediated sucrose uptake)", "setting": "[1]; VDAC liposomes, 50 mM sucrose", "value": "did not inhibit"}
    ]},
    {"molecule": "LV89VF: L8V9 mutant of human Bcl-xL BH4 polypeptide (FIG. 13) (SNREVFVDFLSYKLSQKGYS) [reference compound]", "values": [
      {"measurement": "Inhibition of VDAC activity (VDAC-mediated sucrose uptake)", "setting": "[1]; VDAC liposomes, 50 mM sucrose", "value": "did not inhibit"}
    ]},
    {"molecule": "N-terminal fragment (amino acid nos: 2 to 9) of Bcl-xL: N-terminal (amino acid nos: 2 to 19) polypeptide of Bcl-xL purchased from Santa Cruz Biotechnology (SQSNRELVVDFLSYKLSQ) [reference compound]", "values": [
      {"measurement": "Interaction with VDAC (co-immunoprecipitation)", "setting": "[2]", "value": "detected, although to a lesser extent"}
    ]},
    {"molecule": "SNRELVVDFLSYKLSQKGYS (listed as Homo sapiens) [BH4 polypeptide, amino acid nos: 4 to 23 of human Bcl-xL]", "values": [
      {"measurement": "Molar concentration needed to inhibit ΔΨ loss and VDAC activity, relative to recombinant Bcl-xL", "setting": "[3]; applies to Ca2+-induced ΔΨ loss and VDAC activity", "value": "about 25 fold"},
      {"measurement": "Inhibition of Ca2+-induced mitochondrial ΔΨ loss", "setting": "[3]", "value": "significantly inhibits"},
      {"measurement": "Binding to Bax", "setting": "[4]", "value": "did not bind"},
      {"measurement": "Closure of VDAC", "setting": "[1]; 20 μg/ml BH4 polypeptide", "value": "complete closure"},
      {"measurement": "Inhibition of rBax-induced enhancement of VDAC activity", "setting": "[1]; VDAC liposomes, 5 μg/ml rBax, 50 mM sucrose", "value": "inhibited the rBax-induced enhancement of VDAC activity in a dose-dependent manner"},
      {"measurement": "Inhibition of VDAC activity (VDAC-mediated sucrose uptake)", "setting": "[1]; VDAC liposomes, 50 mM sucrose", "value": "inhibited the VDAC activity in a concentration-dependent manner"},
      {"measurement": "Inhibition of VDAC activity (VDAC-mediated sucrose uptake)", "setting": "[1]; VDAC liposomes, 50 mM sucrose, listed as BH4 polypeptide of BCl-xL", "value": "significantly inhibits"},
      {"measurement": "Inhibition of VP16-induced apoptosis", "setting": "[5]", "value": "no effect"}
    ]},
    {"molecule": "TGYDNREIVMKYIHYKLSQRGYEW (listed as Homo sapiens) [BH4 polypeptide derived from Bcl-2, amino acid nos: 7 to 30 of human Bcl-2]", "values": [
      {"measurement": "Inhibition of VDAC activity (VDAC-mediated sucrose uptake)", "setting": "[1]; VDAC liposomes, 50 mM sucrose", "value": "inhibited VDAC activity"}
    ]},
    {"molecule": "VAQDTEEVFRSYVFYRHQQEQEAE [polypeptide derived from Bak, reference compound]", "values": [
      {"measurement": "Inhibition of VDAC activity (VDAC-mediated sucrose uptake)", "setting": "[1]; VDAC liposomes, 50 mM sucrose", "value": "inactive"}
    ]},
    {"molecule": "eosin-C-RKKRRQRRR [TAT-only polypeptide, reference compound]", "values": [
      {"measurement": "Inhibition of VP16-induced apoptosis", "setting": "[5]", "value": "did not significantly inhibit"}
    ]},
    {"molecule": "rBcl-xL: recombinant human Bcl-xL expressed as GST fusion in Escherichia coli, GST cleaved with thrombin", "values": [
      {"measurement": "Inhibition of Ca2+-induced mitochondrial ΔΨ loss", "setting": "[3]", "value": "inhibited"},
      {"measurement": "Interaction with VDAC (co-immunoprecipitation)", "setting": "[2]", "value": "interacted with VDAC to a similar level"},
      {"measurement": "Inhibition of Ca2+-induced cytochrome c release", "setting": "[6]", "value": "inhibited"},
      {"measurement": "Inhibition of VDAC activity (VDAC-mediated sucrose uptake)", "setting": "[1]; VDAC liposomes, 50 mM sucrose", "value": "inhibited"},
      {"measurement": "Effect on VDAC-free liposomes", "setting": "[1]; VDAC-free liposomes", "value": "did not show any significant effect"}
    ]},
    {"molecule": "rΔ21: recombinant human Bcl-xL lacking the N-terminus 21 amino acids residues (BH4 deletion mutant)", "values": [
      {"measurement": "Inhibition of Ca2+-induced mitochondrial ΔΨ loss", "setting": "[3]", "value": "did not virtually show inhibitory activity"},
      {"measurement": "Inhibition of Ca2+-induced cytochrome c release", "setting": "[6]", "value": "did not virtually show inhibitory activity"},
      {"measurement": "Inhibition of VDAC activity (VDAC-mediated sucrose uptake)", "setting": "[1]; VDAC liposomes, 50 mM sucrose", "value": "did not affect"}
    ]},
    {"molecule": "ΔFL: F12L13 mutant of human Bcl-xL BH4 polypeptide (FIG. 13) (SNRELVVDSYKLSQKGYS) [reference compound]", "values": [
      {"measurement": "Inhibition of VDAC activity (VDAC-mediated sucrose uptake)", "setting": "[1]; VDAC liposomes, 50 mM sucrose", "value": "did not inhibit"}
    ]},
    {"molecule": "ΔLV: L8V9 mutant of human Bcl-xL BH4 polypeptide (FIG. 13) (SNREVDFLSYKLSQKGYS) [reference compound]", "values": [
      {"measurement": "Inhibition of VDAC activity (VDAC-mediated sucrose uptake)", "setting": "[1]; VDAC liposomes, 50 mM sucrose", "value": "did not inhibit"}
    ]},
    {"molecule": "SNRELVVDFLSYKLSQKGYS", "note": "[Human Bcl-xL BH4 polypeptide (amino acid nos: 4 to 23 of human Bcl-xL)]", "values": [
      {"measurement": "molar concentration needed to inhibit Ca2+-induced membrane potential loss and VDAC activity, relative to recombinant Bcl-xL", "setting": "[7]", "value": "~25", "unit": "fold"}
    ]}
  ]
}
